These results are taken from patent publication US20180009889A1 (Novartis, published 2018).

Experiment [1] concerns the target T1, Notch1 intracellular domain (ICD1) (UniProt P46531 1754-2555).
T1 construct: domain: Notch1 intracellular domain (ICD1)
In words: Western blot of lysates of T-cell acute lymphoblastic leukemia cell lines. For orientation: A western blot detects proteins with antibodies after separation by electrophoresis.

For experiment [2], the target named is T2, Gamma secretase cleaved form of the Notch3 intracellular domain (ICD3) (human, UniProt Q9UM47 1662-2321).
T2 construct: also called Notch3 ICD
T2 sequence: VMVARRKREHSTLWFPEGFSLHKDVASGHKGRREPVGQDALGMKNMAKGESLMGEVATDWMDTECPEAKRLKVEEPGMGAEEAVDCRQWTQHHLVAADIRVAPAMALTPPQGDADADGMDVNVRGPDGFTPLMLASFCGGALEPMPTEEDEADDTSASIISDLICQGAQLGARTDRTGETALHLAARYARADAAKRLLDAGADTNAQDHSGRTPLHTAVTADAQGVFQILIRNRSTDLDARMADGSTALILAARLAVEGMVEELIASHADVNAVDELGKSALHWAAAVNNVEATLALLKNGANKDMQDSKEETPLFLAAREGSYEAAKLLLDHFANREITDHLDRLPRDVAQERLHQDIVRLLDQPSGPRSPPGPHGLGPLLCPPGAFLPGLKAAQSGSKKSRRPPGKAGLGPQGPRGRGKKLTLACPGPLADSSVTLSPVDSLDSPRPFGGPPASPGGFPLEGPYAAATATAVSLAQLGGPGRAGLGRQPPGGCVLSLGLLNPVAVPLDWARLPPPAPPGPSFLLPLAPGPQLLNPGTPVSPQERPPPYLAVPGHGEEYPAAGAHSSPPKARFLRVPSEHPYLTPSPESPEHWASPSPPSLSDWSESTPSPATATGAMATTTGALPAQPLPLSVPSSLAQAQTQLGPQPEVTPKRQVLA
The experiment is described as follows: Western blot of TALL-1 cell lysates with hybridoma sub-clone supernatant.

The target of experiment [3] is T3, ICD3 of MDA-MB468 cells (frame-shift mutation at amino acid 2034, premature stop) (human).
T3 construct: also called smaller ICD3; faster migrating ICD3
T3 chain: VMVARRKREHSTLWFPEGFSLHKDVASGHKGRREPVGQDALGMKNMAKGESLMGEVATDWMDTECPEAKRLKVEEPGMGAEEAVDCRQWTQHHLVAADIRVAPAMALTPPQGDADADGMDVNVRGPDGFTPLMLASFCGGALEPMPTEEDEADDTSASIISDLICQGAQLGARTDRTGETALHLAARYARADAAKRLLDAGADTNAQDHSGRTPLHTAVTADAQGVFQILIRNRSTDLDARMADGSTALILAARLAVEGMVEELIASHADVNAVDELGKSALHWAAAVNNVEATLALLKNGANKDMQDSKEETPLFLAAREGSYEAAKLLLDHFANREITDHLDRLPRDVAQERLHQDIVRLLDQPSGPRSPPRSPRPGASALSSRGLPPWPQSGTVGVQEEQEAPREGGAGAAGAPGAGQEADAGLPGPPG
In words: Western blot of MDA-MB468 cell lysates.

T1 sequence (P46531 1754-2555 limits assumed): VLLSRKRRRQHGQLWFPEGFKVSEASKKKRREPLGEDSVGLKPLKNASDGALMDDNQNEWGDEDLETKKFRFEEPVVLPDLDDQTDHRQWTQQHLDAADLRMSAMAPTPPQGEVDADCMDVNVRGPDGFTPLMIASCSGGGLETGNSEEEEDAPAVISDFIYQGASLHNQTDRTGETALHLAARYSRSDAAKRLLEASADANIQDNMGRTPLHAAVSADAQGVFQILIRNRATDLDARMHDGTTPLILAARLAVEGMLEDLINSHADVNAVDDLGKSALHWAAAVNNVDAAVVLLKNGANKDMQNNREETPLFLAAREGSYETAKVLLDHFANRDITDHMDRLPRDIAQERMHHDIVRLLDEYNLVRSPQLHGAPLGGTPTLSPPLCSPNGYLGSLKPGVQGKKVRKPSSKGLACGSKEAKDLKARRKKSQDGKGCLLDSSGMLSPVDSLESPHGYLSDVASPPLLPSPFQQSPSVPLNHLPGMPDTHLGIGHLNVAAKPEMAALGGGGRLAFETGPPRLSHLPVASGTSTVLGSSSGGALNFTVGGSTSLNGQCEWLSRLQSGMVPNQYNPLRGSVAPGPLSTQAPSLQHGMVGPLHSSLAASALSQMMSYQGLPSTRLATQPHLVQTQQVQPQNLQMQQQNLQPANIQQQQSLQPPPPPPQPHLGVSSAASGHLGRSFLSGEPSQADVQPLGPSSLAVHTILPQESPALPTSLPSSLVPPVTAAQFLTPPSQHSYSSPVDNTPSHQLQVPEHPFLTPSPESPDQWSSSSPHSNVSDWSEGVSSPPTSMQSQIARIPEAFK

B1: ICD3 Ab (antibody, V domains shown)
VH: QSLEESGGDLVKPGASLTLTCTASGFSFTKNAYMCWDRQAPGKRPEWIACIETGDGTTYYASWAKGRFTVSKTSSTTVTLQMTSLTAADTATYFCARELYDDYGDYFNLWGPGTLVTVSS
VL: ALVMTQTPSSVSAAVGGTVTINCQTSENFYSNDILSWYQQKPGQPPKLLIYEASTLASGVPSRFKGSGSGTQFTLTISDVQCDDAATYYCQGSVLDSGWYDISFGGGTEVVVKG
notes: also called ICD3 antibody
As to B1, the values for the binding result in experiment [1], in experiment [2] and in experiment [3] were “no binding (tested: 1:5000 dilution)”, “binds” and “binds”, respectively.
